The values below come from patent US20190276561A1 (FUJIFILM WAKO PURE CHEMICAL, published 2019).

Experiment [1] concerns the target T1, hepatocyte growth factor (HGF) (Homo sapiens (Human), UniProt P14210 388-728).
T1 construct: Antigen of the t8E4 and t1E4 antibodies
The experiment in a line: X-ray crystal structure of the complex.

For experiment [2], the target named is T2, SORLA (neuroral sorting receptor) Vps10p domain (Homo sapiens (Human), UniProt Q92673 86-753).
T2 construct: also called SORLA Vps10p domain
T2 sequence: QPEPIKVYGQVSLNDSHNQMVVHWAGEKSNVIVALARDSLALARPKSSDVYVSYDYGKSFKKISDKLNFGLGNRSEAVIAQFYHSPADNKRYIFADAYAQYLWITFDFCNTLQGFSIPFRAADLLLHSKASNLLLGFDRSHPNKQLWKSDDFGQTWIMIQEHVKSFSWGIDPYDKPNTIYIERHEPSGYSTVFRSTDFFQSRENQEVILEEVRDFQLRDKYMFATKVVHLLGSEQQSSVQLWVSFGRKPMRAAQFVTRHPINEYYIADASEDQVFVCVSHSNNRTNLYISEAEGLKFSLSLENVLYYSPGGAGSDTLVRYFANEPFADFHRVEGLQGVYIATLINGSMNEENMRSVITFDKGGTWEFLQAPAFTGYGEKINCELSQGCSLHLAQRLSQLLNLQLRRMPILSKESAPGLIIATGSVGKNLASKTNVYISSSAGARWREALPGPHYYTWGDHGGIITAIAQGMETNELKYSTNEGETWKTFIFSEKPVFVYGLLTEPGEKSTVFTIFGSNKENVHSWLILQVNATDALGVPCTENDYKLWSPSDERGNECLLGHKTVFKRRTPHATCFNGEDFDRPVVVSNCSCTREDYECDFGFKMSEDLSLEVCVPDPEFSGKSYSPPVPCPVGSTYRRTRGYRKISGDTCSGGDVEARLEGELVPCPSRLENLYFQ
Briefly: peak shift in gel filtration chromatography.

Another experiment concerns the target T3, C8 peptide (PRGYPGQV).
T3 construct: Antigen molecule of the P20.1 antibody
T3 peptide: PRGYPGQV
The experiment in a line: affinity chromatography on immobilised C8 peptide, eluted with free C8.

The target of a further experiment is T4, Integrin α6β1 (Homo sapiens (Human), UniProt P23229 24-680; P05556 21-465).
T4 construct: Antigen of the TS2/16 and SG/19 antibodies
The experiment in a line: peak shift in gel filtration chromatography. (Size exclusion chromatography separates by hydrodynamic size, large species first.)

Experiment [3] concerns the target T1, hepatocyte growth factor (HGF). Briefly: peak shift in gel filtration chromatography.

T1 sequence (P14210 other isoform, or with tags, fused parts or gaps limits assumed): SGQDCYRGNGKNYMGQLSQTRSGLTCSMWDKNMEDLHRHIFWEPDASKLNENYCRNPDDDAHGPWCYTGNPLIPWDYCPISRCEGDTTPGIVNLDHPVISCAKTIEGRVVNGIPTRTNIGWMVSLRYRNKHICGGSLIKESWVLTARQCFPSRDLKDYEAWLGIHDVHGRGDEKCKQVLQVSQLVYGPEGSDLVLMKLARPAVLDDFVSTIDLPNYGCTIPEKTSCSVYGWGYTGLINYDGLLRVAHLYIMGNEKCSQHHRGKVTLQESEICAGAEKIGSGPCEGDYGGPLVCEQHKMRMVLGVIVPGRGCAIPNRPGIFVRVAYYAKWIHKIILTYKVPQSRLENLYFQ
T4 sequence (P23229 other isoform, or with tags, fused parts or gaps limits assumed, chain 1 of 2): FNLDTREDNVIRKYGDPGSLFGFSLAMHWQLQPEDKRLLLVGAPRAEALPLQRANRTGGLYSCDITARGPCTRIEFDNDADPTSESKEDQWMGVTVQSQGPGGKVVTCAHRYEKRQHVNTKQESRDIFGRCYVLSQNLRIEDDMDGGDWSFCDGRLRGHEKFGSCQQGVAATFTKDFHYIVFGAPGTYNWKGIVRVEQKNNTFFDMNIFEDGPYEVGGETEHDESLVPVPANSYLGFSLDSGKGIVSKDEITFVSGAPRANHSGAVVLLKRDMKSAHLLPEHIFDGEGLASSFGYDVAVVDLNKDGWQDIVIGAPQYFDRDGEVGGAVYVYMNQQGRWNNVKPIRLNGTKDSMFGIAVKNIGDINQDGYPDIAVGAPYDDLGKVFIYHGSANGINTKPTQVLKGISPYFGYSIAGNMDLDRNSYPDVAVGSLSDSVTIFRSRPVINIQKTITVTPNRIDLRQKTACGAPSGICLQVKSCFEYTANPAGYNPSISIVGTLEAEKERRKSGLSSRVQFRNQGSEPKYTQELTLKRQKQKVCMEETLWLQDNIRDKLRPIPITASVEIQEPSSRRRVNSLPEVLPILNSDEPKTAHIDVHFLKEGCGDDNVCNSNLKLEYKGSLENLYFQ
T4 sequence (P05556 other isoform, or with tags, fused parts or gaps limits assumed, chain 2 of 2): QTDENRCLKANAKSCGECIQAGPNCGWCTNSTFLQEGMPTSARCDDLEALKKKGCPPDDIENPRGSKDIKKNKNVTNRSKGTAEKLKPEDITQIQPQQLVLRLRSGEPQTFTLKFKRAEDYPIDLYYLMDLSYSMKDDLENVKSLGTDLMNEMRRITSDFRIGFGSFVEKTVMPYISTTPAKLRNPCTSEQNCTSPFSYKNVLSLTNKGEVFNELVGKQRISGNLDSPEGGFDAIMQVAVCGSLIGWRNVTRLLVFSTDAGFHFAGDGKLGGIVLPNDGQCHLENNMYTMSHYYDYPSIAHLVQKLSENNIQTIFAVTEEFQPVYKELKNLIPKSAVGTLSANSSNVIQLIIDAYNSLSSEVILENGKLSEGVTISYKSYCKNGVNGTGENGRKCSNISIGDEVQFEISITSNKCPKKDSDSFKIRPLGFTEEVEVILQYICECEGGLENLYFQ

B1: t1E4 antibody-Fv-clasp (v2) (other)
VH: MKQGQLQQSGPELVKPGASVKISCKASGYVFSSSWMNWVKQRPGKGLEWIGRIYPGYGDTNYNGKFKGKATLTADKSSSTAYMQLSSLTSEDSAVYFCVREELGPYWYFDVWGAGTTVTVCSGSDYEFLKSWTVEDLQKRLLALDPMMEQEIEEIRQKYQSKRQPILDAIEAK
VL: MDVVMTQTPLSLPVSLGDQASISCRSSQSLVHSNGNTYLHWYLQKPGQSPKLLIYKVSNRFSGVPDRFSGSGSGTDFTLKISRVEAEDLGVYFCSQSTHVPYTFGSGTKLEIKRGSDYEFLKSWTVEDLQKRLLALDPMMEQEIEEIRQKYQCKRQPILDAIEAK
notes: also called Fv-clasp (v2) against t1E4 antibody
In the case of B1, the binding result in experiment [1] is given as “binds”.

B2: 93201 antibody-Fv-clasp (v2) (other)
VH: MEVQLQQSGAELVKPGASVKLSCTASGFNIQDTYIHWVKQRPEQGLDWIGRIDPANGNTKYDPNFQGKATITADTSSNTAYLQLSSLASEDTAVYYCATSNYYSRGAMDYWGQGTSVTVCSGSDYEFLKSWTVEDLQKRLLALDPMMEQEIEEIRQKYQSKRQPILDAIEAK
VL: MDIVLTQSPASLAVSLGQRATISCRASESVEYYGTNLMHWYQQKPGQPPKLLIYVASTVKSGVPARFSGSGSGTDFSLNIHPVEEDDIAMYFCQQSRKVPWTFGGGTRLEIKRGSDYEFLKSWTVEDLQKRLLALDPMMEQEIEEIRQKYQCKRQPILDAIEAK
Take B2: the binding result in experiment [2] was “binds”.

B3: P20.1 antibody-Fv-clasp (v1) obtained in the E. coli expression system (Comparative Example 1) (other)
VH: MQIQLVQSGPEVQKPGETVRISCKASGYTFTTAGMQWVQKMPGKSLKWIGWINTRSGVPKYAEDFKGRFAFSLETSASIAYLHINNLKNEDTATYFCAREGPGFVYWGQGTLVTVSSGSDYEFLKSWTVEDLQKRLLALDPMMEQEIEEIRQKCQSKRQPILDAIEAK
VL: MGQTVVTQESALTTSPGETVTLTCRSSTGAVTTSNYANWVQEKPDHLFTGLIVGTNNRVPGVPPRFSGSLIEDKAALTITGAQTEDEAIYFCALWYSNHWVFGGGTKLTVLGGSDYEFLKSWTVEDLQKRLLALDPMCEQEIEEIRQKYQSKRQPILDAIEAK
notes: Fv-clasp fragment antibody: heterodimer of VH-SARAH and VL-SARAH linked by a disulfide between Cys35 and Cys24 of the two SARAH domains; also called Fv-clasp (v1) against P20.1 antibody; Fv-clasp (v1) of P20.1 antibody
Regarding B3, in the experiment with C8 peptide (PRGYPGQV), the binding result is on record as “binds”.

B4: TS2/16 antibody-Fv-clasp (v2) (other)
VH: MDVKLVESGGGLVKPGGSLKLSCAASGFTFSSYTMSWVRQTPEKRLEWVATISSGGSYTYYPDSVKGRFTISRDKAKNTLYLQMGSLKSEDTAMYYCTRIGYDEDYAMDHWGQGTSVTVCSGSDYEFLKSWTVEDLQKRLLALDPMMEQEIEEIRQKYQSKRQPILDAIEAK
VL: MQIVVTQRPTTMAASPGDKIIITCSVSSIISSNYLHWYSQKPGFSPKLLIYRTSNLASGVPPRFSGSGSGTSYSLTIGTMEAEDVATYYCQQGSDIPLTFGDGTKLDLKRGSDYEFLKSWTVEDLQKRLLALDPMMEQEIEEIRQKYQCKRQPILDAIEAK
notes: also called Fv-clasp (v2) against TS2/16 antibody
In the case of B4, the binding result in the experiment with Integrin α6β1 is given as “binds”.

B5: SG/19 antibody-Fv-clasp (v2) (other)
VH: MQVHLQQSGAELMKPGASVKISCKATGYTFTSYWIEWVKQRPGHGLEWLGEILPGSGYIHYNEKFKGKATFTTDTSSNTAYMQLSSLTSEDSAVYYCSRALALYAMDYWGQGTSVTVCSGSDYEFLKSWTVEDLQKRLLALDPMMEQEIEEIRQKYQSKRQPILDAIEAK
VL: MDIVMTQATPSIPVTPGESVSISCRSNKSLLHSNGNTYLYWFLQRPGQSPRLLIFRMSNLASGVPDRFSGSGSGTAFTLRISRVEAADVGIYFCLQHLEYPFTFGAGTKLELKRGSDYEFLKSWTVEDLQKRLLALDPMMEQEIEEIRQKYQCKRQPILDAIEAK
notes: also called Fv-clasp (v2) against SG/19 antibody
B5: the binding result in the experiment with Integrin α6β1 was “binds”.

B6: t8E4 antibody-Fv-clasp (v2) (other)
VH: MKQVQLKESGPDLVQPSQTLSLTCTVSGFSLTGYGVHWVRQPPGKGLEWVGTLGWNDKKYYNSALKSRLSISRDTSKNQVFLKLSSLETEDTAMYYCTRDGGLLFAYYAMDYWGQGTSVTVCSGSDYEFLKSWTVEDLQKRLLALDPMMEQEIEEIRQKYQSKRQPILDAIEAK
VL: MDIQMTQTTSSLSASLGDRVTFSCRASQDISNYLNWYQQKPDGTVKLLIFYTSRLHSGVPSRFSGSGSGTDYSLTIANLEQEDFATYFCQQDSKHPFTFGSGTKLEIKRGSDYEFLKSWTVEDLQKRLLALDPMMEQEIEEIRQKYQCKRQPILDAIEAK
notes: also called Fv-clasp (v2) against t8E4 antibody
In the case of B6, the binding result in experiment [3] is on record as “binds”.
